Data set [1] has as its system HeLa Kyoto. The experiment in a line: solubility in G1/S (NP-40 vs SDS abundance) (log2 ratio); higher = more soluble. The settings on record: cell cycle stage: G1/S.
Data set [2] relates to HeLa Kyoto. In words: solubility change mitosis vs G1/S (difference of NP-40 vs SDS log2 ratios) (log2 ratio difference); higher = more soluble in mitosis.
In data set [3] the test system is HeLa Kyoto. The experiment in a line: thermal stability score vs G1/S (z-score of summed log2 fold changes over temperatures); higher = more thermally stable than in G1/S.
[4] abbreviates: cell cycle stage: early G1 (4.5 h after nocodazole release).
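Wherever solubility change mitosis vs G1/S (difference of NP-40 vs SDS log2 ratios) is given: synchronized HeLa Kyoto cells (double thymidine block for G1/S, nocodazole release for mitosis), protein amounts in NP-40 versus SDS lysates quantified by mass spectrometry, three biological replicates.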
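Wherever solubility in G1/S (NP-40 vs SDS abundance) is given: HeLa Kyoto cells arrested at G1/S by double thymidine block, proteins quantified by TMT10plex mass spectrometry in mild NP-40 versus SDS extracts, three biological replicates.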
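Wherever thermal stability score vs G1/S (z-score of summed log2 fold changes over temperatures) is given: synchronized HeLa Kyoto cells, proteins quantified by TMT10plex mass spectrometry, three biological replicates, mitosis taken 0.5 h after nocodazole release, G1/S directly after double thymidine block.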

For the substance “MSTEGGGRRCQAQVSRRISFSASHRLYSKFLSDEENLKLFGKCNNPNGHGHNYKVVVTVHGEIDPATGMVMNLADLKKYMEEAIMQPLDHKNLDMDVPYFADVVSTTENVAVYIWDNLQKVLPVGVLYKVKVYETDNNIVVYKGE [PTS]”, the “solubility in G1/S (log2)” value in data set [1] is 0.154. In addition, the “solubility change mitosis (log2)” value in data set [2] is -0.182. Moreover, the thermal stability score in data set [3] (setting [4]) was -0.38; in data set [3] (cell cycle stage: mitosis), -1.87.
As to “MGFGSDLKNSHEAVLKLQDWELRLLETVKKFMALRIKSDKEYASTLQNLCNQVDKESTVQMNYVSNVSKSWLLMIQQTEQLSRIMKTHAEDLNSGPLHRLTMMIKDKQQVKKSYIGVHQQIEAEMIKVTKTELEKLKCSYRQLIKEMNSAKEKYKEALAKGKETEKAKERYDKATMKLHMLHNQYVLALKGAQLHQNQYYDITLPLLLDSLQKMQEEMIKALKGIFDEYSQITSLVTEEIVNVHKEIQMSVEQIDPSTEYNNFIDVHRTTAAKEQEIEFDTSLLEENENLQANEIMWNNLTAESLQVMLKTLAEELMQTQQMLLNKEEAVLELEKRIEESSETCEKKSDIVLLLSQKQALEELKQSVQQLRCTEAKFSAQKELLEQKVQENDGKEPPPVVNYEEDARSVTSMERKERLSKFESIRHSIAGIIRSPKSALGSSALSDMISISEKPLAEQDWYHGAIPRIEAQELLKKQGDFLVRESHGKPGEYVLSVYSDGQRRHFIIQYVDNMYRFEGTGFSNIPQLIDHHYTTKQVITKKSGVVLLNPIPKDKKWILSHEDVILGELLGKGNFGEVYKGTLKDKTSVAVKTCKEDLPQELKIKFLQEAKILKQYDHPNIVKLIGVCTQRQPVYIIMELVSGGDFLTFLRRKKDELKLKQLVKFSLDAAAGMLYLESKNCIHRDLAARNCLVGENNVLKISDFGMSRQEDGGVYSSSGLKQIPIKWTAPEALNYGRYSSESDVWSFGILLWETFSLGVCPYPGMTNQQAREQVERGYRMSAPQHCPEDISKIMMKCWDYKPENRPKFSELQKELTIIKRKLT [FER]”, the “solubility in G1/S (log2)” value in data set [1] is -0.0779. Further, the “solubility change mitosis (log2)” value in data set [2] is -0.106. Besides, the thermal stability score was -0.138 in data set [3] (setting [4]) and -0.342 in data set [3] (cell cycle stage: mitosis).
In the case of CEP170B, the “solubility in G1/S (log2)” value in data set [1] amounted to 0.0802. In addition, the “solubility change mitosis (log2)” value in data set [2] was found to be 0.338. The thermal stability score in data set [3] (setting [4]) was -3.46e-17; in data set [3] (cell cycle stage: mitosis), -1.29e-17.
For the substance “MEGQSSRGSRRPGTRAGLGSLPMPQGVAQTGAPSKVDSSFQLPAKKNAALGPSEPRLALAPVGPRAAMSASSEGPRLALASPRPILAPLCTPEGQKTATAHRSSSLAPTSVGQLVMSASAGPKPPPATTGSVLAPTSLGLVMPASAGPRSPPVTLGPNLAPTSRDQKQEPPASVGPKPTLAASGLSLALASEEQPPELPSTPSPVPSPVLSPTQEQALAPASTASGAASVGQTSARKRDAPAPRPLPASEGHLQPPAQTSGPTGSPPCIQTSPDPRLSPSFRARPEALHSSPEDPVLPRPPQTLPLDVGQGPSEPGTHSPGLLSPTFRPGAPSGQTVPPPLPKPPRSPSRSPSHSPNRSPCVPPAPDMALPRLGTQSTGPGRCLSPNLQAQEAPAPVTTSSSTSTLSSSPWSAQPTWKSDPGFRITVVTWNVGTAMPPDDVTSLLHLGGGDDSDGADMIAIGLQEVNSMLNKRLKDALFTDQWSELFMDALGPFNFVLVSSVRMQGVILLLFAKYYHLPFLRDVQTDCTRTGLGGYWGNKGGVSVRLAAFGHMLCFLNCHLPAHMDKAEQRKDNFQTILSLQQFQGPGAQGILDHDLVFWFGDLNFRIESYDLHFVKFAIDSDQLHQLWEKDQLNMAKNTWPILKGFQEGPLNFAPTFKFDVGTNKYDTSAKKRKPAWTDRILWKVKAPGGGPSPSGRKSHRLQVTQHSYRSHMEYTVSDHKPVAAQFLLQFAFRDDMPLVRLEVADEWVRPEQAVVRYRMETVFARSSWDWIGLYRVGFRHCKDYVAYVWAKHEDVDGNTYQVTFSEESLPKGHGDFILGYYSHNHSILIGITEPFQISLPSSELASSSTDSSGTSSEGEDDSTLELLAPKSRSPSPGKSKRHRSRSPGLARFPGLALRPSSRERRGASRSPSPQSRRLSRVAPDRSSNGSSRGSSEEGPSGLPGPWAFPPAVPRSLGLLPALRLETVDPGGGGSWGPDREALAPNSLSPSPQGHRGLEEGGLGP [INPP5J]”, the “solubility in G1/S (log2)” value in data set [1] came to 0.0932. Moreover, the “solubility change mitosis (log2)” value in data set [2] is -0.115. Moreover, the thermal stability score in data set [3] (setting [4]) turned out to be 0.193; in data set [3] (cell cycle stage: mitosis), 0.518.
Turning to “MTKLAQWLWGLAILGSTWVALTTGALGLELPLSCQEVLWPLPAYLLVSAGCYALGTVGYRVATFHDCEDAARELQSQIQEARADLARRGLRF [DPM3]”, the “solubility in G1/S (log2)” value in data set [1] was -0.196. Also, in data set [2], the “solubility change mitosis (log2)” value is -0.214. The thermal stability score in data set [3] (setting [4]) was -3.28; in data set [3] (cell cycle stage: mitosis) it was -4.14.
With “MNPIVVVHGGGAGPISKDRKERVHQGMVRAATVGYGILREGGSAVDAVEGAVVALEDDPEFNAGCGSVLNTNGEVEMDASIMDGKDLSAGAVSAVQCIANPIKLARLVMEKTPHCFLTDQGAAQFAAAMGVPEIPGEKLVTERNKKRLEKEKHEKGAQKTDCQKNLGTVGAVALDCKGNVAYATSTGGIVNKMVGRVGDSPCLGAGGYADNDIGAVSTTGHGESILKVNLARLTLFHIEQGKTVEEAADLSLGYMKSRVKGLGGLIVVSKTGDWVAKWTSTSMPWAAAKDGKLHFGIDPDDTTITDLP [ASRGL1]”, in data set [1], the “solubility in G1/S (log2)” value turned out to be 0.282. The “solubility change mitosis (log2)” value in data set [2] is -0.207. Moreover, the thermal stability score is -1.89 in data set [3] (setting [4]) and -2.25 in data set [3] (cell cycle stage: mitosis).
For TNS1, in data set [1], the “solubility in G1/S (log2)” value was -0.0779. The “solubility change mitosis (log2)” value in data set [2] is 0.117. The thermal stability score in data set [3] (setting [4]) amounted to 0.323; in data set [3] (cell cycle stage: mitosis), 1.79.
The matching figures for “MEEGKMDENEWGYHGEGNKSLVVAHAQRCVVLRFLKFPPNRKKTSEEIFQHLQNIVDFGKNVMKEFLGENYVHYGEVVQLPLEFVKQLCLKIQSERPESRCDKDLDTLSGYAMCLPNLTRLQTYRFAEHRPILCVEIKPKCGFIPFSSDVTHEMKHKVCRYCMHQHLKVATGKWKQISKYCPLDLYSGNKQRMHFALKSLLQEAQNNLKIFKNGELIYGCKDARSPVADWSELAHHLKPFFFPSNGLASGPHCTRAVIRELVHVITRVLLSGSDKGRAGTLSPGLGPQGPRVCEASPFSRSLRCQGKNTPERSGLPKGCLLYKTLQVQMLDLLDIEGLYPLYNRVERYLEEFPEERKTLQIDGPYDEAFYQKLLDLSTEDDGTVAFALTKVQQYRVAMTAKDCSIMIALSPCLQDASSDQRPVVPSSRSRFAFSVSVLDLDLKPYESIPHQYKLDGKIVNYYSKTVRAKDNAVMSTRFKESEDCTLVLHKV [IPPK]”: -0.275, -0.0236, 0.519 and 1.21.

The values are drawn from the supplement of paper PMC5998384.
